“And” between values parts separate entries of the source, which are not always exact repeats. Equal values may be shown once.
Legend:
cynomolgus CD16 [1] = molecular target: T1, cynomolgus CD16 (cynomolgus, UniProt Q8SPW2 17-208, limits assumed); test: SPR
T1 construct: also called Cyno CD16; cynomolgus FcγRIII

[2] = molecular target: T2, human NKG2D (recombinant mFc-tagged dimer) (human, UniProt P26718 78-216); test: SPR, kinetics fit
T2 construct: also called hNKG2D
T2 sequence (looked up): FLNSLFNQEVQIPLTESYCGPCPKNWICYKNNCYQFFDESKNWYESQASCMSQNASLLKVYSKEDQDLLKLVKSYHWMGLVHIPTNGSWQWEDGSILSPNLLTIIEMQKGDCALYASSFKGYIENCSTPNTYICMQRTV
Source text: (§1) NKG2D is a native dimer, therefore recombinant mFc-tagged NKG2D dimer was used for this experiment. Two different fits were utilized to obtain the equilibrium affinity data: steady state affinity fit and kinetic fit.

human CD32b [3] = molecular target: T3, human CD32b (human, UniProt P31994 46-217, limits assumed); test: SPR, steady state
T3 construct: also called FcγRIIb
T3 sequence (looked up): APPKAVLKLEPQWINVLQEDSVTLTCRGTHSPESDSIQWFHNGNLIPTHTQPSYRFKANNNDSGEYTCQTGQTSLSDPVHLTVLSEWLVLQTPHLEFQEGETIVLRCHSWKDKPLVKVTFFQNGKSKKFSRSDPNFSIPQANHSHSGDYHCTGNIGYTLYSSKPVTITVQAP

human CD16b [4] = molecular target: T4, human CD16b (human, UniProt O75015 17-200, limits assumed); test: SPR, steady state
T4 construct: also called FcγRIIIb
T4 sequence (O75015 17-200 limits assumed): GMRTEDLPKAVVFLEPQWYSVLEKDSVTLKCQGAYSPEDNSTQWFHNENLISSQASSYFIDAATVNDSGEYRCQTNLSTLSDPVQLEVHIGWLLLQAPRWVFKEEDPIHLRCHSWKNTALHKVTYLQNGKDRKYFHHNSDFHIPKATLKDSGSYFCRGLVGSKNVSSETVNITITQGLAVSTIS

human CD16a V158 = molecular target: T5, human CD16a V158 (human, UniProt P08637 17-208); test: SPR, summary table
T5 construct: also called hCD16aV; hCD16a V158
T5 sequence (P08637 17-208 F176V limits assumed): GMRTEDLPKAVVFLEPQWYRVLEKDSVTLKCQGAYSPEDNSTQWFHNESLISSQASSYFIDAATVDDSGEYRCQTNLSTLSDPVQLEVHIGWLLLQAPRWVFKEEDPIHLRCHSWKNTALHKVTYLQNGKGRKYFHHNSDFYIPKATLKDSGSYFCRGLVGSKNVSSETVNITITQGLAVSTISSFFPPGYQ

human CD16a F158 = human CD16a F158 (human, UniProt P08637 17-208); test: SPR, summary table
Sequence of human CD16a F158 (P08637 17-208 limits assumed): as the sequence (P08637 17-208 F176V limits assumed) above, with V160F counted along it

cynomolgus CD16 [5] = molecular target: T1, cynomolgus CD16; test: SPR, summary table
human CD64 = molecular target: T6, human CD64 (human, UniProt P12314 16-288, limits assumed); test: SPR, summary table
T6 construct: also called FcγRI
T6 sequence (P12314 16-288 limits assumed): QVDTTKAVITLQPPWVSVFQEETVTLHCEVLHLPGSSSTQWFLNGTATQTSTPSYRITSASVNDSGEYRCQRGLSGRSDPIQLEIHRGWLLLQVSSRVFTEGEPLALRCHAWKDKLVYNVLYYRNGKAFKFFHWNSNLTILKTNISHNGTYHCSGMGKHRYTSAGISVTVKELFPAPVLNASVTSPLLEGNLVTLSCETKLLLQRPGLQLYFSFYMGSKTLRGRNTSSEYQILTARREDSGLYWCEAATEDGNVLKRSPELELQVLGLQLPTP

human CD32a H131 = molecular target: T7, human CD32a H131 (human, UniProt P12318 36-218, limits assumed); test: SPR, summary table
T7 sequence (looked up): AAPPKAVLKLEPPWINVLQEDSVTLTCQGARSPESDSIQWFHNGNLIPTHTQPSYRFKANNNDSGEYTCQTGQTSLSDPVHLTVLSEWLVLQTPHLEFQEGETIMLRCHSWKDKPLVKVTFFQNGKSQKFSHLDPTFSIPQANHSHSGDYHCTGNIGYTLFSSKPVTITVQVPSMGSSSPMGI

human CD32a R131 = molecular target: T8, human CD32a R131 (human, UniProt P12318 36-218, limits assumed); test: SPR, summary table
T8 construct: also called FcγRIIa R131
T8 sequence (looked up): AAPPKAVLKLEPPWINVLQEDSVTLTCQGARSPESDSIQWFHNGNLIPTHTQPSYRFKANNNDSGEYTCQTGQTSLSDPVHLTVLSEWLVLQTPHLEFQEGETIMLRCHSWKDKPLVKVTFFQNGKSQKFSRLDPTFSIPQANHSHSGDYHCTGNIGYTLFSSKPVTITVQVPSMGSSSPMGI

human CD32b [6] = molecular target: T3, human CD32b; test: SPR, summary table
human CD16b [7] = molecular target: T4, human CD16b; test: SPR, summary table
[8] = molecular target: T9, human BAFF-R expressed on cells (human, UniProt Q96RJ3 1-184); test: flow cytometry, RL cells
T9 construct: Cell surface BAFF-R, endogenous on B cell lines and primary B cells or overexpressed on isogenic CHO cells; also called hBAFF-R; hBAFF-R-CHO

[9] = molecular target: T2, human NKG2D (recombinant mFc-tagged …); test: SPR, kinetic fit, control
[10] = molecular target: T2, human NKG2D (recombinant mFc-tagged …); test: SPR, kinetics fit, average
Source text: as §1

human CD16b [11] = molecular target: T4, human CD16b; test: SPR, steady state, average
[12] = molecular target: T10, cynomolgus NKG2D (recombinant mFc-tagged dimer) (cynomolgus, UniProt P61252 78-216); test: SPR, 1:1 kinetic fit, average
T10 construct: also called cyno NKG2D
T10 sequence (looked up): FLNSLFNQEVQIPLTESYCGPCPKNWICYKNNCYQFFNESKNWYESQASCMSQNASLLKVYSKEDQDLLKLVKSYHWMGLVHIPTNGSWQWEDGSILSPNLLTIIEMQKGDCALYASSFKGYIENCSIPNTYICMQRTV
Source text: as §1

[13] = molecular target: T9, human BAFF-R expressed on cells; test: flow cytometry, SUDHL-6 cells
[14] = molecular target: T11, cynomolgus monkey BAFF-R expressed on cells (cynomolgus monkey); test: flow cytometry, cyno BAFF-R CHO cells
T11 construct: whole, on cells; also called cBAFF-R; cynoBAFF-R

[15] = molecular target: T9, human BAFF-R expressed on cells; test: flow cytometry, human BAFF-R CHO cells
Source text: Isogenic cell lines overexpressing human and cynomolgus BAFF-R on the backbone of CHO cell line were designed.

[16] = molecular target: T2, human NKG2D (recombinant mFc-tagged …); test: SPR, high concentration sample, control
[17] = molecular target: T2, human NKG2D (recombinant mFc-tagged …); test: SPR, steady state, after 4 weeks at 40 °C
cynomolgus FcRn = molecular target: T12, cynomolgus FcRn (cynomolgus, UniProt Q8SPV9 24-297; Q8SPW0 21-119); test: SPR, pH 6.0, steady state; pH 6.0; first replicate
T12 construct: also called Cyno FcRn
T12 sequence (Q8SPV9 24-297 limits assumed, chain 1 of 2): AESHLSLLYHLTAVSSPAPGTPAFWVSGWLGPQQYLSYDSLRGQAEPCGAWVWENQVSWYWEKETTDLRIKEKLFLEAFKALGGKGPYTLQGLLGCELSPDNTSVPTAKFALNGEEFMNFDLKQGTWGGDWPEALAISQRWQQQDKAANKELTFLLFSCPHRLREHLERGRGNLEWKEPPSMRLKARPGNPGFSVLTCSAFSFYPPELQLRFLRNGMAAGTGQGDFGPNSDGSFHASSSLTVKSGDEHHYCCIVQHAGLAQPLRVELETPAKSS
T12 sequence (Q8SPW0 21-119 limits assumed, chain 2 of 2): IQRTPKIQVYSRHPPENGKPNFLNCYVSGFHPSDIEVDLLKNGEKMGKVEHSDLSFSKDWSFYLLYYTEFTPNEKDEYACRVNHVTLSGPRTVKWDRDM

human FcRn = human FcRn (human, UniProt P55899 24-297; P61769 21-119); test: SPR, pH 6.0, steady state; pH 6.0; fourth replicate
Sequence of human FcRn (P55899 24-297 limits assumed, chain 1 of 2): as the sequence (Q8SPV9 24-297 limits assumed, chain 1 of 2) above, with D39N, Q44E, S99G, G189S, N190S, M217L, T269S counted along it
Sequence of human FcRn (P61769 21-119 limits assumed, chain 2 of 2): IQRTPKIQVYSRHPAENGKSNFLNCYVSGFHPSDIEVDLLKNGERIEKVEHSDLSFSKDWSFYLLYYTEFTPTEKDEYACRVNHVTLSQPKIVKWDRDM

T1 sequence (Q8SPW2 17-208 limits assumed): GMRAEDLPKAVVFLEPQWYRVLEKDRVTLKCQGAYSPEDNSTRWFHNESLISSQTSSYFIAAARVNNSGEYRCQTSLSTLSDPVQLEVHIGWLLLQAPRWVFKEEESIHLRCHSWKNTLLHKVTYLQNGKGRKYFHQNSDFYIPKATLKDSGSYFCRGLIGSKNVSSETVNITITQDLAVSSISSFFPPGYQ

B1: AB1424/AB1612 F3′ TriNKET (bispecific antibody, human IgG1, kappa)
chain: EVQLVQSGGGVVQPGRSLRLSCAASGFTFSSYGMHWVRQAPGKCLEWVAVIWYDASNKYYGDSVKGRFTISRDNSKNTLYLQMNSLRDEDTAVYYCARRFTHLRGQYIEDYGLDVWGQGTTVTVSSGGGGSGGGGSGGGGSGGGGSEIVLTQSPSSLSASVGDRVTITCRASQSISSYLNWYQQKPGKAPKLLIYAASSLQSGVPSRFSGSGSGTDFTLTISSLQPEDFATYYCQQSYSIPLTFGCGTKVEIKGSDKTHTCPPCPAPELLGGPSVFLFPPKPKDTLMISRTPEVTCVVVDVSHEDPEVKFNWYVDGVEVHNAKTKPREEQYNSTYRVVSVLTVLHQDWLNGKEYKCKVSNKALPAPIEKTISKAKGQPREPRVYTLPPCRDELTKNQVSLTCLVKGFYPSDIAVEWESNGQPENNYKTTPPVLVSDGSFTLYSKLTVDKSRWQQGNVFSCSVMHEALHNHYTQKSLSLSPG
heavy: EVQLVESGGGLVKPGGSLRLSCAASGFTFSSYSMNWVRQAPGKGLEWVSSISSSSSYIYYADSVKGRFTISRDNAKNSLYLQMNSLRAEDTAVYYCARGAPIGAAAGWFDPWGQGTLVTVSSASTKGPSVFPLAPSSKSTSGGTAALGCLVKDYFPEPVTVSWNSGALTSGVHTFPAVLQSSGLYSLSSVVTVPSSSLGTQTYICNVNHKPSNTKVDKKVEPKSCDKTHTCPPCPAPELLGGPSVFLFPPKPKDTLMISRTPEVTCVVVDVSHEDPEVKFNWYVDGVEVHNAKTKPREEQYNSTYRVVSVLTVLHQDWLNGKEYKCKVSNKALPAPIEKTISKAKGQPREPQVCTLPPSRDELTENQVSLTCLVKGFYPSDIAVEWESNGQPENNYKTTPPVLDSDGSFFLYSWLTVDKSRWQQGNVFSCSVMHEALHNHYTQKSLSLSPG
light: DIQMTQSPSSVSASVGDRVTITCRASQGISSWLAWYQQKPGKAPKLLIYAASSLQSGVPSRFSGSGSGTDFTLTISSLQPEDFATYYCQQGVSFPRTFGGGTKVEIKRTVAAPSVFIFPPSDEQLKSGTASVVCLLNNFYPREAKVQWKVDNALQSGNSQESVTEQDSKDSTYSLSSTLTLSKADYEKHKVYACEVTHQGLSSPVTKSFNRGEC
notes: Chain S: anti-BAFF-R scFv-CH2-CH3; chain H: anti-NKG2D VH-CH1-CH2-CH3; chain L: anti-NKG2D VL-CL; also called AB1612-002
**Q.** Which koff (cynomolgus CD16 [1]) does the source give for B1 here?
**A.** Its koff is 0.02 s⁻¹ and 0.021 s⁻¹.

**Q.** And the kon (cynomolgus CD16 [1])?
**A.** The kon was 78000 M⁻¹ s⁻¹ and 72000 M⁻¹ s⁻¹.

**Q.** And the Kd [2]?
**A.** Its Kd is 439 nM and 453 nM and 466 nM and 465 nM.

**Q.** What about the Kd (human CD32b [3]) of the same binder?
**A.** Its Kd is 5900 nM and 5500 nM and 5800 nM and 6300 nM.

**Q.** And the Kd (human CD16b [4])?
**A.** The Kd was 7000 nM and 6300 nM and 7900 nM and 6400 nM.

**Q.** What about the Kd (human CD16a V158) of the same binder?
**A.** Its Kd is 129 nM.

**Q.** And the Kd (human CD16a F158)?
**A.** The Kd was 1350 nM.

**Q.** And the Kd (cynomolgus CD16 [5])?
**A.** The Kd was 271 nM.

**Q.** What about the Kd (human CD64) of the same binder?
**A.** The Kd was 3.2 nM.

**Q.** What about the Kd (human CD32a H131) of the same binder?
**A.** Its Kd is 1000 nM.

**Q.** And the Kd (human CD32a R131)?
**A.** Its Kd is 1400 nM.

**Q.** And the Kd (human CD32b [6])?
**A.** Its Kd is 5900 nM.

**Q.** And the Kd (human CD16b [7])?
**A.** The Kd was 6900 nM.

**Q.** What about the EC50 [8] of the same binder?
**A.** Its EC50 is 0.27 nM.

**Q.** What about the “Max FOB” value [8] of the same binder?
**A.** Its value is 8 fold over background.

**Q.** What about the Kd [9] of the same binder?
**A.** The Kd was 503 nM.

**Q.** And the Kd [10]?
**A.** The Kd was 456 nM.

**Q.** What about the Kd (human CD16b [11]) of the same binder?
**A.** Its Kd is 6900 nM.

**Q.** What about the Kd [12] of the same binder?
**A.** The Kd was 517 nM.

**Q.** And the EC50 [13]?
**A.** Its EC50 is 0.41 nM.

**Q.** And the “Max FOB” value [13]?
**A.** Its value is 19 fold over background.

**Q.** What about the EC50 [14] of the same binder?
**A.** Its EC50 is 1.85 nM.

**Q.** What about the EC50 [15] of the same binder?
**A.** The EC50 was 0.9 nM.

**Q.** And the “Max FOB” value [15]?
**A.** Its value is 85 fold over background.

**Q.** And the koff [16]?
**A.** The koff was 0.11 s⁻¹.

**Q.** What about the kon [16] of the same binder?
**A.** Its kon is 220000 M⁻¹ s⁻¹.

**Q.** What about the Kd [17] of the same binder?
**A.** The Kd was 522 nM.

**Q.** What about the Kd (cynomolgus FcRn) of the same binder?
**A.** Its Kd is 1000 nM.

**Q.** And the Kd (human FcRn)?
**A.** The Kd was 1100 nM.
